According to US20200332006A1 (ULTRAHUMAN NINE, published 2020):
Blank lines part the entries; values can stand above or below the molecule they belong to.

Assays:
[1] = target: T1, human CD20, expressed on HEK293 cells (human, UniProt P11836 1-297); experiment: flow cytometry on transfected HEK293 cells, no primary antibody
T1 construct: whole, on cells
T1 sequence (looked up): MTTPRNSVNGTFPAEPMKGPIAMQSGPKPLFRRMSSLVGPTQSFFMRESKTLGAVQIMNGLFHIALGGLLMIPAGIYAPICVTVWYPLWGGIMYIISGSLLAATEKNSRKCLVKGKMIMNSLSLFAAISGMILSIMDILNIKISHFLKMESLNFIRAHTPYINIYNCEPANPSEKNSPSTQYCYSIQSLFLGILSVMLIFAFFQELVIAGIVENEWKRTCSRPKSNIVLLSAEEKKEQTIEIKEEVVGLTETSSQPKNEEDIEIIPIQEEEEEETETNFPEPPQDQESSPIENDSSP

[2] = target: T2, human BTN2A1, expressed on HEK293 cells (human, UniProt Q7KYR7 29-527); experiment: as above
T2 construct: also called NM_007049
T2 sequence: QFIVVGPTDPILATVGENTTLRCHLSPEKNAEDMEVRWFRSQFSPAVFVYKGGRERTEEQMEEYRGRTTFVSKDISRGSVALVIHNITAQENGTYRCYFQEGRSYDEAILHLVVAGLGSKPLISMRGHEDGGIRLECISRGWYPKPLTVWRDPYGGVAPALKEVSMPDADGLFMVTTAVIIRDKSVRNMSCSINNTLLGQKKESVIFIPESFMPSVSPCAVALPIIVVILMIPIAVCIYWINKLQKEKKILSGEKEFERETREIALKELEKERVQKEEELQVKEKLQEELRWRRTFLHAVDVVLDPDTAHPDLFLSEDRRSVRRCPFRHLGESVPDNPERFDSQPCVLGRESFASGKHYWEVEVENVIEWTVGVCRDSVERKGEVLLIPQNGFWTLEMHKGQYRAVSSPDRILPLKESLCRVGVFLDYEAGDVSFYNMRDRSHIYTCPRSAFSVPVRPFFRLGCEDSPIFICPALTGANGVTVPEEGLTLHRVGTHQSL

[3] = target: T3, human LSAMP, expressed on HEK293 cells (human, UniProt Q13449 29-315); experiment: as above
T3 construct: also called BC033803
T3 sequence: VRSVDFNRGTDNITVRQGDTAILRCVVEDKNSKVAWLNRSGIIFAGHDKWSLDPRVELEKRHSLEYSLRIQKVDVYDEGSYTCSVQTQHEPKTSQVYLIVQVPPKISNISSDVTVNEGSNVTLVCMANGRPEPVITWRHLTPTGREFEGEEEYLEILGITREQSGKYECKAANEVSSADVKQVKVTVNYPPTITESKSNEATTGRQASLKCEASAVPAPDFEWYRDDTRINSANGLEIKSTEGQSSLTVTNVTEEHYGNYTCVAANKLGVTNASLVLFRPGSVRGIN

[4] = target: T4, biotinylated human PD1-His/AviTag (human, UniProt Q15116 25-170, biotinylated (AviTag)); experiment: AlphaScreen epitope competition; titrated IgG against mu317 IgG (parental IgG, 0.3 nM) on biotinylated monomeric human PD1
T4 construct: also called biotinylated monomeric human PD1
Description: (§1) The AlphaScreen assay (Perkin Elmer) was performed in a 25 μl final volume in 384-well white microtiter plates (Greiner). The reaction buffer contained 1×PBS pH 7.3 (Oxoid, Cat. nr. BR0014G) and 0.05% (v/v) Tween® 20 (Sigma, Cat. nr. P9416). Purified IgG samples were titrated in three fold serial dilutions starting at 500 nM final concentration and incubated with biotinylated human PD1-His/AviTag at 0.6 nM final concentration for 20 minutes at room temperature. […] Followed by addition of the Streptavidin Donor beads at 20 μg/ml (final concentration) and incubation for 30 minutes at room temperature. The emission of light was measured in the EnVision multilabel plate reader (Perkin Elmer) and analysed using the EnVision manager software. Values were reported as Counts Per Second (CPS) and corrected for crosstalk.

[5] = target: T5, cynomolgus monkey PD1 human Fc tagged recombinant protein (cynomolgus monkey, UniProt Q15116 25-170 (human entry), limits assumed); experiment: direct titration ELISA, IgG1null on coated PD1-Fc (reference antibody)
T5 construct: also called cyno PD1-Fc; cyPD1
T5 chain: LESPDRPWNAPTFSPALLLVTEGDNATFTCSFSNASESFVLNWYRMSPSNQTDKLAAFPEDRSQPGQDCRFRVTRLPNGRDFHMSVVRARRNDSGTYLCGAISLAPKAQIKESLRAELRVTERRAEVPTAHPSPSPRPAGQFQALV
Description: (§2) Binding and cross-reactivity of the lead panel to the recombinant proteins was initially assessed by binding ELISA. The human PD1 human Fc tagged recombinant protein and the cynomolgus monkey PD1 human Fc tagged recombinant protein were coated to the surface of MaxiSorp™ flat-bottom 96 well plate at 1 μg/ml. The Fab samples were applied at 1:5 dilution in 1% Skimmed Milk/1×PBS; 1 h at RT; 100 μl/well. IgGs were titrated in two fold serial dilutions starting from 500 nM to 0.98 nM and allowed to bind to the coated antigens. The Fabs were detected using mouse anti-c-myc antibody followed by donkey anti-mouse IgG conjugated to horseradish peroxidase. The IgGs were detected using the mouse anti-human IgG conjugated to horseradish peroxidase. Binding signals were visualized with 3,3′,5,5′-Tetramethylbenzidine Substrate Solution (TMB) and the absorbance measured at 450 nm.

[6] = target: T1, human CD20, expressed on HEK293 cells; experiment: flow cytometry on transfected HEK293 cells, 2 ug/ml IgG
Description: (§3) FIG. 11. […] Analyses of binding specificity were performed on HEK293 cells transiently transfected with plasmids encoding either human PD1, human BTN2A1, human LSAMP, human CD20 or ZS green marker only. Each antibody was used in staining at […] concentration and histograms are indicated per antibody in this figure.
(§4) Human cell membrane receptor proteome arrays were performed at Retrogenix Ltd. Primary screens: 2 μg/ml of each antibody was screened for binding against fixed HEK293 cells/slides expressing 5528 human plasma membrane and tethered secreted proteins individually. […] Antibody binding was detected using AF647 fluorescent secondary anti-human IgG1 antibody. Primary hits (duplicate spots) were identified by analysing fluorescence (AF647 and ZsGreen1) on ImageQuant. Confirmation/specificity screens: Expression vectors encoding ZsGreen1 only, or ZsGreen1 and CD20, PD1, BTN2A1, or LSAMP were transfected into human HEK293 cells. […] Cells were washed, and incubated with the same AF647 anti-human IgG Fc detection antibody as used in the cell microarray screens. Cells were again washed, and analysed by flow cytometry using an Accuri flow cytometer (BD). A 7AAD live/dead dye was used to exclude dead cells, and ZsGreen1-positive cells (i.e. transfected cells) were selected for analyses.

[7] = target: T2, human BTN2A1, expressed on HEK293 cells; experiment: as above
Description: as §3, §4

[8] = target: T3, human LSAMP, expressed on HEK293 cells; experiment: as above
Description: as §3, §4

[9] = target: T4, biotinylated human PD1-His/AviTag; experiment: AlphaScreen epitope competition; competitor mu317 IgG on biotinylated monomeric human PD1
Description: as §1

[10] = target: T2, human BTN2A1, expressed on HEK293 cells; experiment: flow cytometry on live transfected HEK293 cells
Description: as §3, §4

[11] = target: T5, cynomolgus monkey PD1 human Fc tagged …; experiment: direct titration ELISA, IgG1null on coated PD1-Fc
Description: as §2

[12] = target: T6, human PD1 human Fc tagged recombinant protein (human, UniProt Q15116 25-170); experiment: direct titration ELISA, IgG1null on coated PD1-Fc
T6 construct: also called human PD1-Fc; huPD1
Description: as §2

T4 sequence (Q15116 25-170 limits assumed): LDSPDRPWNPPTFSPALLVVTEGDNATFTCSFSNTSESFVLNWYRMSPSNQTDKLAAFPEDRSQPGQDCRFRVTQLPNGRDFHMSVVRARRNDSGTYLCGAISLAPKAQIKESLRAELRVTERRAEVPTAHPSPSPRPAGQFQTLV
T6 sequence (Q15116 25-170 limits assumed): as above

IC50 [4]: 0.37 nM
binding result [5]: binds
B1: Mu317 murine anti-PD1 v-domains, produced in human IgG1null format (antibody, V domains shown)
VH: QVQLKESGPGLVAPSKNLSITCTVSGFSLTSYGVHWIRQPPGKGLEWLGVIWAGGSTNYNSALMSRLSISKDNSRSQVFLRMNSLQTDDTAMYYCARAYGNYWYIDVWGAGTTVTVSS
VL: DIVMTQTPKFLLVSAGDRVTITCKASQSVSNDVAWYQQKPGQSPKLLINYAFHRFTGVPDRFTGSGYGTDFIFTISTVQAEDLAVYFCHQAYSSPYTFGGGTKLEMK
notes: Tested as IgG1null (human IgG1 with L234A, L235A, G237A) with human Ckappa; also called Mu317 IgG1; parental IgG

fold fluorescence change versus mock (ZSgreen only) cells [6]: 1.1 fold
fold fluorescence change versus mock (ZSgreen only) cells [7]: 1.3 fold
fold fluorescence change versus mock (ZSgreen only) cells [8]: 4.1 fold
IC50 [9]: 0.624 nM
B4: Antibody MH12, IgG1null format (antibody, V domains shown)
VH: EVQLVESGGGLVQPGGSLRLSCAASGFTFSSYGMSWVRQAPGKGLEWVANIWQDGSEKYVDSVKGRFTISRDNAKNSLYLQMNSLRAEDTAVYYCARAYGNYWYIDRWGQGTTVTVSS
VL: DIVMTQSPDSLAVSLGERATINCKSSQSVTNDVAWYQQKPGQPPKLLINYAYHRFTGVPDRFSGSGYGTDFTLTISSLQAEDVAVYYCHQAYSTPYTFGQGTKLEIK
notes: Tested as IgG1null (human IgG1 L234A, L235A, G237A) with human Ckappa; also called clone MH12

binding result [11]: binds
binding result [12]: binds
B5: Antibody 09C06, IgG1null format (antibody, V domains shown)
VH: EVQLVESGGGLVQPGGSLRLSCAASGFSFSSYGMHWVRQAPGKGLEWVANIWQDGSTNYVDSVKGRFTISRDNAKNSLYLQMNSLRAEDTAVYYCARAYGNYWYIDRWGQGTTVTVSS
VL: DIVMTQSPDSLAVSLGERATINCKSSQSVSNDVAWYQQKPGQPPKLLINYASHRFTGVPDRFSGSGYGTDFTLTISSLQAEDVAVYYCHQAYSTPYTFGQGTKLEIK
notes: Library-derived clone; Tested as IgG1null (human IgG1 L234A, L235A, G237A) with human Ckappa; also called clone 09C06

The next lines start with the molecule.

Molecule: AF647 anti-human IgG Fc detection antibody alone
fold fluorescence change versus mock (ZSgreen only) cells [1]: 0.9 fold
fold fluorescence change versus mock (ZSgreen only) cells [2]: 1.1 fold
fold fluorescence change versus mock (ZSgreen only) cells [3]: 1.5 fold

B2: Antibody MH8, IgG1null format (antibody, V domains shown)
VH: EVQLVESGGGLVQPGGSLRLSCAASGFTFSSYGMSWVRQAPGKGLEWVANIWQDGSTKYVDSVKGRFTISRDNAKNSLYLQMNSLRAEDTAVYYCARAYGNYWYIDRWGQGTTVTVSS
VL: DIVMTQSPDSLAVSLGERATINCKSSQSVTNDVAWYQQKPGQPPKLLINYAYHRFTGVPDRFSGSGYGTDFTLTISSLQAEDVAVYYCHQAYSTPYTFGQGTKLEIK
notes: Tested as IgG1null (human IgG1 L234A, L235A, G237A) with human Ckappa; also called clone MH8
fold fluorescence change versus mock (ZSgreen only) cells [6]: 0.9 fold
fold fluorescence change versus mock (ZSgreen only) cells [7]: 1.1 fold
fold fluorescence change versus mock (ZSgreen only) cells [8]: 7.1 fold
IC50 [9]: 0.39 nM
binding result [10]: no binding (tested: 2 ug/ml)

B3: Antibody MH4, IgG1null format (antibody, V domains shown)
VH: EVQLVESGGGLVQPGGSLRLSCAASGFSLSSYGMSWVRQAPGKGLEWVAVIWQDGSTNYVDSVKGRFTISRDNAKNSLYLQMNSLRAEDTAVYYCARAYGNYWYIDRWGQGTTVTVSS
VL: DIVMTQSPDSLAVSLGERATINCKSSQSVTNDVAWYQQKPGQPPKLLINYAYHRFTGVPDRFSGSGYGTDFTLTISSLQAEDVAVYYCHQAYSTPYTFGQGTKLEIK
notes: Tested as IgG1null (human IgG1 L234A, L235A, G237A) with human Ckappa; also called clone MH4
fold fluorescence change versus mock (ZSgreen only) cells [6]: 1.1 fold
fold fluorescence change versus mock (ZSgreen only) cells [7]: 1.2 fold
fold fluorescence change versus mock (ZSgreen only) cells [8]: 1.9 fold
IC50 [9]: 0.63 nM
binding result [10]: no binding (tested: 2 ug/ml)
